Data taken from US20030036108A1.

Legend:
[1] = target: CD4 naturally expressed on Jurkat T cells (human) (UniProt P01730); test: cell-based or functional assay
[2] = target: CXCR4 naturally expressed on Jurkat T cells (human) (UniProt P61073); test: cell-based or functional assay
Sequence of CXCR4 naturally expressed on Jurkat T cells (human) (P61073 whole entry): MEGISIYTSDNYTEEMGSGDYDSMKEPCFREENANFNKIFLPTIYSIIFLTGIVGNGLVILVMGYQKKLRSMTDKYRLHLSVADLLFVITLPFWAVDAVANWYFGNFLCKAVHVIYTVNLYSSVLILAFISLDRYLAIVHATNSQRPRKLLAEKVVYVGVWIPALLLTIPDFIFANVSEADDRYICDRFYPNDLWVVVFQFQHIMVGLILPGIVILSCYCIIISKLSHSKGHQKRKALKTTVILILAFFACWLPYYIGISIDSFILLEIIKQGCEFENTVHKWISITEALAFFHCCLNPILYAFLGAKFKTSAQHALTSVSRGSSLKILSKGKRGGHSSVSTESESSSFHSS

**Q.** With “gp143/HXB2, a carboxyl-terminus truncated form of the Env (gp160) of HIV-1 strain HXB2, expressed on CHO or 293T cells (from UniProt P04578 31-714)” as the substance, how does the fusion ratio (460 nm / 530 nm emission) of 293T cells expressing gp143/HXB2 with Jurkat cells [1] read?
**A.** 1.54

**Q.** What about the fusion ratio (460 nm / 530 nm emission) of 293T cells expressing gp143/HXB2 with Jurkat cells [2] of the same substance?
**A.** 1.54
